Laboratory results taken from the supplement of paper PMC9732359.
± gives the uncertainty stated by the source.

experiment: protein stability index of a GFP-peptide fusion (yeast GPS) (PSI 1-4); higher = more stable; sorted into four equal gates, so the index is relative within each strain; conditions: doa10∆
How it was run: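 Plasmids in a pooled yeast library fused tiled 17-residue yeast protein peptides downstream of GFP and also expressed Cherry. Mid-log cultures grown without leucine were sorted into four equal gates by GFP/Cherry fluorescence ratio. Each gate's plasmids were PCR-amplified and Illumina-sequenced, and reads were matched to strains by barcodes. The protein stability index is derived by multiplying each gate's read frequency by its gate number and summing the results.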

Sequence | protein stability index
SPQKFETNLQTFLPPLL [ECM29] | 3.01 ± 0.071
SPSERIEPLEINIQSFK [BRR2] | 2.51 ± 0.064
SPTENGVFDPASYAKYL [RPL22A] | 2.98 ± 0.051
SPTPIQRITIPNVCNMK [PRP28] | 1.99 ± 0.074
SQAFDIVAALPISEKGL [RPP1] | 2.85 ± 0.18
SQEQGMGMDLYKTSKAA [FAS1] | 3.05 ± 0.086
SQFINDHILFTKTFIFI [SRB8] | 1.56 ± 0.054
SQFLKRVHANLQCISQI [SNF11] | 1.17 ± 0.043
SQHKKILEELDFVRNEL [SMC3] | 3.35 ± 0.14
SQRAQVVTMSVKSVNDP [RPC37] | 2.17 ± 0.073
SQSSAAAGASVDDKRRN [RPN6] | 3.38 ± 0.2
SQVKDSVTETESISQTP [SRP68] | 2.92 ± 0.12
SQYFKFKNDFNSFYYTS [RPN9] | 2.1 ± 0.075
SRCHLVTKDTKKYSSKN [SRP68] | 3.04 ± 0.092
SRGAVSGQKAGLIAARR [RPL2A] | 3.4 ± 0.093
SRHFASYANLPGTITHG [FAS1] | 2.75 ± 0.059
SRILYKAIRGMVSHKTA [RPL16B] | 1.26 ± 0.057
SRIRVKIEGCISQVSSI [RPB7] | 1.6 ± 0.1
SRNGDFPRTRFEAQIDS [RPN10] | 3.09 ± 0.12
SRPATTTRNGFMEAQGA [FAS2] | 2.28 ± 0.049
SRSNFQGKHTKFENDEL [LRP1] | 3.28 ± 0.091
SRTAADILLRLCVLWDD [YCG1] | 2.23 ± 0.24
SSAKRSKNTAVSKVQKR [SRP72] | 2.25 ± 0.11
SSEQFNVWDWNNWTSAT [GAL11] | 3.08 ± 0.1
SSFKKNLLKFITSNHKS [RPN3] | 1.46 ± 0.053
SSFRPCPLSQQFCGIKE [BRR2] | 2.45 ± 0.073

Sequence | protein stability index
SSKTRNVLNRIQELEDQ [ITC1] | 1.35 ± 0.088
SSLFLDGLEKAAFNGVT [FAS2] | 2.3 ± 0.06
SSLFQEKLLETNVSKQN [ECM29] | 2.74 ± 0.11
SSLIKAGLDKGISINNM [RPO31] | 2.65 ± 0.064
SSLSFGPENALNVYHYF [YJL039C/NUP192] | 1.94 ± 0.031
SSLVRSCGEEEFFSTNW [REC8] | 3.49 ± 0.23
SSNQSAPVETKKKRFEI [HRT1] | 3.18 ± 0.065
SSPTLATGFGAHMANPL [PRE4] | 3.26 ± 0.09
SSQFVRLASEPGIISIT [YMR129W/POM152] | 2.04 ± 0.094
SSQPLEPLSDTEEPDLA [DSN1] | 2.74 ± 0.062
SSTDIPSYTHVLISKLS [RRI1] | 2.13 ± 0.045
SSVTSDSMKYTISSLFV [RPC82] | 1.93 ± 0.046
STANPNIKLLNNRMGSY [POP1] | 3.01 ± 0.086
STIEKDMKEYDSDKGSK [SMC2] | 3.25 ± 0.1
STKIIMLLLNDSVENSS [SRB8] | 2.63 ± 0.074
STLMPGGVDVGPSVESY [SNF5] | 1.63 ± 0.083
STLSNWSSEFAKWAPTL [SNF2] | 2.9 ± 0.054
STMTEPVKQSFIRKYIN [GAL11] | 2.56 ± 0.082
STNSNSKPSTASPSAHT [RPN4] | 2.63 ± 0.055
STRLKKACKTADKLVNV [SRP68] | 3.38 ± 0.081
STSYHLNSTLESLYDLI [MED6] | 2.86 ± 0.12
SVARVEDHDVHSNESSN [IRR1] | 2.7 ± 0.059
SVEEVILERAYKKLDID [SNF2] | 3.23 ± 0.16
SVFGFRTQFGGGKSVGF [RPS24A] | 2.56 ± 0.13
SVFKGGMQNLIKKKKKK [SRP14] | 2 ± 0.18
SVIPEVDREAMLKPNII [YCG1] | 3.06 ± 0.12

Sequence | protein stability index
SVRLQRFYQLGVDLKLK [CSN12] | 3.2 ± 0.21
SVRSLQKRIENGGNSVI [SRP68] | 1.7 ± 0.085
SVTAQVYKIALRLTEQK [RPC82] | 1.79 ± 0.15
SVTVSQGNYVTEDIREG [YMR129W/POM152] | 2.82 ± 0.061
SVYGLDDISRQVARTNL [ROX3] | 2.06 ± 0.058
SWNLTGTILSSAGDDGK [YGL100W/SEH1] | 1.37 ± 0.062
SWYLNTFDGIRMSSEEV [GRR1] | 2.73 ± 0.061
SYDFLPLSNIKALLFFN [RPN12] | 2.14 ± 0.047
SYELIKEECQIEDDGII [CSN9] | 2.77 ± 0.11
SYLETLTALGKEKEKER [MED2] | 2.57 ± 0.16
SYQKAWDLLQSGSQNIS [RPN12] | 1.18 ± 0.096
SYQPMYQRPMQVQGQQQ [SSN3] | 1.46 ± 0.043
SYSPTSPSYSPTSPNYS [RPO21] | 2.88 ± 0.065
SYSPTSPSYSPTSPSYS [RPO21] | 2.53 ± 0.042
SYVNYRHMALLVDVMTT [RPO21] | 1.23 ± 0.049
TAEINCFMHLLVQLFLW [RPN3] | 1.77 ± 0.063
TALDAEGAARGTSVYLV [DIS3] | 2.24 ± 0.13
TAPANTTDANGSKENYQ [MED2] | 2.08 ± 0.066
TATAATNGNNAGGGSNK [MED6] | 3.23 ± 0.12
TATGIKVFSLDPQYLVD [ASC1] | 2.52 ± 0.049
TAVATLLKELSKNAQFI [SMC3] | 2.88 ± 0.071
TAVLSTTARAKARAKKT [RPN2] | 3.31 ± 0.11
TCVTCHWNLPGERIFNK [SIR2] | 2.87 ± 0.14
TDANGKTIVTGGNGPED [RPO26] | 3.62 ± 0.21
TDTSTTATAATNGNNAG [MED6] | 3.2 ± 0.29
TEDILKEISTRVFNAKD [YCS4] | 3.11 ± 0.13

Sequence | protein stability index
TEDVRLAPELNQAIWKR [RPL31B] | 2.67 ± 0.069
TEELSITGEKLDTQLND [SMC1] | 1.86 ± 0.068
TEKEEDAELMADEEEEI [ISW2] | 3.5 ± 0.18
TELKKKLDDLENTKDNL [SMC1] | 3.01 ± 0.11
TENATENDQQDNEEWMN [LIN1] | 3.23 ± 0.072
TENVAQARIILNHILEK [YGR119C/NUP57] | 2.58 ± 0.081
TEPDKPAFSFNSSVGNK [YJL041W/NSP1] | 3.14 ± 0.053
TEQQIEIPEGVTVSIKS [RPL9B] | 2.24 ± 0.062
TESITHDSSNGLFQVLH [NUT1] | 3.12 ± 0.073
TETLTSKKIVPSPKKVA [SIR4] | 2.77 ± 0.089
TFDGKPTATPSPFRPLE [YMR153W/NUP53] | 3.02 ± 0.086
TFGKPEEEDSILSLEQS [YCS4] | 3.19 ± 0.091
TFLESINGINWRFHTPQ [SIN4] | 2.4 ± 0.054
TFRLPKTLKLARAPKYA [RPL25] | 1.69 ± 0.076
TFSYVDSSLQPEYFESP [YMR129W/POM152] | 3.22 ± 0.2
TGAASNQSSFNFGNNGA [YOR098C/NUP1] | 2.65 ± 0.11
TGAGKGSIGAEVLQGLL [FAS2] | 3.48 ± 0.088
TGALINNLEPRQTTSNT [RPN11] | 3.12 ± 0.1
TGANFDDVERGVSRQIA [REC8] | 3.49 ± 0.11
TGATSLFGSSNNNNNNN [YGL172W/NUP49] | 2.39 ± 0.046
TGEAQVDNSPTTESNSR [YLR335W/NUP2] | 2.98 ± 0.086
TGGLFGAKPAGSTGGLG [YGL172W/NUP49] | 3.39 ± 0.13
TGHSQGLVTAVAIAETD [FAS1] | 3.25 ± 0.14
TGIFMAMHYSSNIELAF [COB] | 1.3 ± 0.065
TGKFVLQGQMEKIMILL [CSN12] | 1.61 ± 0.1
